According to patent EP4724480A2 (dated 2026):

Legend:
[1] = biological target: T1, ToH1 peptide of BmpC (Borrelia burgdorferi), SYERPDI (Borrelia burgdorferi); experiment: ELISA on ToH1 peptides (FIG.10B)
T1 construct: also called BmpC ToH1 peptide

[2] = biological target: T2, ToH1 peptide of HyR3 (Candida albicans), TFEPPVV (Candida albicans); experiment: ELISA on ToH1 peptides (FIG.10B)
T2 construct: also called HyR3 ToH1 peptide

[3] = biological target: T3, ToH1 peptide of Asa1 (Enterococcus faecalis), […] (Enterococcus faecalis); experiment: ELISA on ToH1 peptides (FIG.10B)
[4] = biological target: T4, ToH1 peptide of LptF (E. coli), SPEKPTV (E. coli); experiment: ELISA on ToH1 peptides (FIG.10B)
T4 construct: also called LptF ToH1 peptide

[5] = biological target: T5, ToH1 peptide of OmpA (Bacteroidales), SFELPTI (Bacteroidales); experiment: ELISA on ToH1 peptides (FIG.10B)
T5 construct: also called OmpA ToH1 peptide

[6] = biological target: T6, E. coli FimH, wild type, on E. coli (BW25113) cells (E. coli, UniProt P08191 22-300); experiment: flow cytometry and immunofluorescence of rHMGB1 on E. coli BW25113
T6 construct: whole, on cells; also called WT FimH; ∆FimHWT

[7] = biological target: T1, ToH1 peptide of BmpC (Borrelia …); experiment: ELISA on ToH1 peptides (FIG.10A)
[8] = biological target: T2, ToH1 peptide of HyR3 (Candida …); experiment: ELISA on ToH1 peptides (FIG.10A)
[9] = biological target: T3, ToH1 peptide of Asa1 (Enterococcus …); experiment: ELISA on ToH1 peptides (FIG.10A)
[10] = biological target: T4, ToH1 peptide of LptF (E. coli), SPEKPTV; experiment: ELISA on ToH1 peptides (FIG.10A)
[11] = biological target: T5, ToH1 peptide of OmpA (Bacteroidales), …; experiment: ELISA on ToH1 peptides (FIG.10A)

Measured: binding result

T6 sequence (P08191 22-300): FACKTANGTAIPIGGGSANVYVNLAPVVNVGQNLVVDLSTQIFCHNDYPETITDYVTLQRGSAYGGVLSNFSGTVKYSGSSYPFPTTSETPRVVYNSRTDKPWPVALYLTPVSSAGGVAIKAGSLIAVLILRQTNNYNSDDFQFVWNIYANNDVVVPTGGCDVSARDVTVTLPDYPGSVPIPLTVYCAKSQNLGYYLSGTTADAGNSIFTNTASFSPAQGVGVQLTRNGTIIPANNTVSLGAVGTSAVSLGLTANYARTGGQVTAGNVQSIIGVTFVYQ

B1: F5 scFv (scFv)
scFv: EVQLVQSGPEVKKPGASVKVSCKASGFIFSNYGIGWVRQAPGQGLEWLGWISGYNGQTNYAQTVQGRVTMTADTSTTTAYMDLRNLRSDDTAIYYCARQSIPYYMDVWGKGTMVTVSSGGGGSGGGGSGGGGSGGGGASDIVMTQSPLSSPVTLGQPASISCRSSQSLVHSNGNTYLSWLHQRPGQPPRLLIYRISNRLSGVPDRFSGSGAGTDFTLKISRVEAEDVGVYYCMQAKQFPVTFGQGTRLEIKGSHHHHHH
notes: also called antibody F5
binds: [1] | [2] | [3] | [4] | [5]

B2: Recombinant human HMGB1 (rHMGB1) (ligand)
chain: MGKGDPKKPRGKMSSYAFFVQTCREEHKKKHPDASVNFSEFSKKCSERWKTMSAKEKGKFEDMAKADKARYEREMKTYIPPKGETKKKFKDPNAPKRPPSAFFLFCSEYRPKIKGEHPGLSIGDVAKKLGEMWNNTAADDKQPYEKKAAKLKEKYEKDIAAYRAKGKPDAAKKGVVKAEKSKKKKEEEEDEEDEEDEEEEEDEEDEDEEEDDDDE
notes: also called High mobility group box 1
binds: [6]

B3: G6 scFv (scFv)
scFv: QVQLQQSGPGLVKPSQTLSLTCAISGDSVSSNSAAWNWIRQSPSRGLEWLGRTYYRSKWYNDYAVSVKSRITINPDTSKNQFSLQLNSVTPEDTAVYYCARRSTWGTFDYWGQGTLVTVSSGGGGSGGGGSGGGGSGGGGASDIVMTQTPDSLAVSLGERATINCKSSQSVLYSSNNKNYLAWYQQKPGQPPKLLIYWASTRESGVPDRFSGSGSGTDFTLTISSLQAEDVAVYYCQQYYALPLTFGGGTKLEIKGSHHHHHH
notes: also called antibody G6
binds: [7] | [8] | [9] | [10] | [11]
